Data reported in patent publication US20150104808A1 (Janssen / Centocor, published 2015).

Tests used:
[1] = target: T1, EGFR (epidermal growth factor receptor) on cells (human, UniProt P00533 25-1210); assay: A431 cell binding, anti-His-Alexa488 fluorescence
T1 construct: Endogenous EGFR of human tumour cell lines; also called A431 cells; NCI-H292
Experimental: A431 cells were plated at 5,000/well in opaque black 96-well plates and allowed to attach overnight at 37° C., in a humidified 5% CO₂ atmosphere. […] Supernatant was removed and cells were washed 3 times with 150 μL/well of FACS stain buffer. Cells were incubated with 50 μL/well of anti-penta His-Alexa488 antibody conjugate (Qiagen) diluted 1:100 in FACS stain buffer for 20 minutes at room temperature. Cells were washed 3 times with 150 μL/well of FACS stain buffer, after which wells were filled with 100 μL of FACS stain buffer and read for fluorescence at 488 nm using an Acumen eX3 reader. Data were plotted as raw fluorescence signal against the logarithm of the FN3 domain molar concentration and fitted to a sigmoidal dose-response curve with variable slope using GraphPad Prism 4 (GraphPad Software) to calculate EC₅₀ values.

[2] = target: Recombinant human c-Met Fc chimera (human) (UniProt P08581); assay: HGF competition on coated c-Met Fc chimera, competitor biotinylated HGF
[3] = target: T1, EGFR (epidermal growth factor receptor) …; assay: cell-based or functional assay
[4] = target: c-Met (hepatocyte growth factor receptor) on cells (human, UniProt P08581 25-1390); assay: cell-based or functional assay

| Binder | IC50 [2] [nM] | IC50, inhibition of EGF-stimulated EGFR phosphorylation (Tyr1173) in NCI-H292 [3] [nM] | IC50, inhibition of HGF-stimulated c-Met phosphorylation (Tyr1349) in NCI-H292 [4] [nM] | further results |
| --- | --- | --- | --- | --- |
| P54CR4-31 (designed binder, not shown: small tags and cut ends) LPAPKNLVVSEVTEDSLRLSWTAPDAAFDSFLIQYQESEKVGEAINLTVPGSERSYDLTGLKPGTEYTVSIYGVLGSYVFEHDVMLPLSAEFTT | – | – | – | EC50 [1]: > 20000 nM |
| P114AR7P93-G8 (designed binder, not shown: small tags and cut ends) LPAPKNLVVSRVTEDSARLSWTAPDAAFDSFWIRYFEFLGSGEAIVLTVPGSERSYDLTDLKPGTEYGVTINGVKGGRVSTPLSAIFTT | 1 | – | – | – |
| P114AR5P74-A5 (designed binder, not shown: small tags and cut ends) LPAPKNLVVSRVTEDSARLSWTAPDAAFDSFWIRYDEVVVGGEAIVLTVPGSERSYDLTGLKPGTEYYVNILGVKGGSISVPLSAIFTT | 5.2 | – | – | – |
| P114AR7P95-F10 (designed binder, not shown: small tags and cut ends) LPAPKNLVVSRVTEDSARLSWTAPDAAFDSFWIRYFEFTTAGEAIVLTVPGSERSYDLTGLKPGTEYVVNIMGVKGGSISPPLSAIFTT | 1.4 | – | – | – |
| P114AR7P92-F6 (designed binder, not shown: small tags and cut ends) LPAPKNLVVSRVTEDSARLSWTAPDAAFDSFWIRYFEFLGSGEAIVLTVPGSERSYDLTGLKPGTEYVVNILGVKGGGLSVPLSAIFTT | 2.2 | – | – | – |
| P114AR7P94-A3 (designed binder, not shown: small tags and cut ends) LPAPKNLVVSRVTEDSARLSWTAPDAAFDSFWIRYFEFLGSGEAIVLTVPGSERSYDLTGLKPGTEYVVNIMGVKGGKISPPLSAIFTT | 0.2 | – | – | – |
| P114AR7P92-G8 (designed binder, not shown: small tags and cut ends) LPAPKNLVVSRVTEDSARLSWTAPDAAFDSFVIRYFEFLGSGEAIVLTVPGSERSYDLTGLKPGTEYVVQILGVKGGYISIPLSAIFTT | 1.6 | – | – | – |
| P114AR7P93-H9 (designed binder, not shown: small tags and cut ends) LPAPKNLVVSRVTEDSARLSWTAPDAAFDSFWIRYFEFLGSGEAIVLTVPGSERSYDLTGLKPGTEYVVQIIGVKGGHISLPLSAIFTT | 2.9 | – | – | – |
| P114AR5P75-E9 (designed binder, not shown: small tags and cut ends) LPAPKNLVVSRVTEDSARLSWTAPDAAFDSFFIRYDEFLRSGEAIVLTVPGSERSYDLTGLKPGTEYWVTILGVKGGLVSTPLSAIFTT | 51.9 | – | – | – |
| P114AR7P94-E5 (designed binder, not shown: small tags and cut ends) LPAPKNLVVSRVTEDSARLSWTAPDAAFDSFWIRYFEFLGSGEAIVLTVPGSERSYDLTGLKPGTEYAVNIMGVKGGRVSVPLSAIFTT | 0.7 | – | – | – |
| ECB38 (designed binder) MLPAPKNLVVSEVTEDSARLSWDDPWAFYESFLIQYQESEKVGEAIVLTVPGSERSYDLTGLKPGTEYTVSIYGVHNVYKDTNMRGLPLSAIFTTAPAPAPAPAPLPAPKNLVVSRVTEDSARLSWTAPDAAFDSFWIRYFEFLGSGEAIVLTVPGSERSYDLTGLKPGTEYVVNIMGVKGGKISPPLSAIFTTAPAPAPAPAPLAEAKVLANRELDKYGVSDYYKNLINNAKTVEGVKALLDEILAALP | – | 2.3 | 1.3 | – |
| ECB147v3-PEG24 (designed binder, PEG24-maleimide on the engineered cysteines) LPAPKNLVVSEVTEDSARLSWDDPWAFYESFLIQYQESEKVGEAIVLTVPGSERSYDLTGLCPGTEYTVSIYGVHNVYKDTNMRGLPLSAIFTTAPCPAPAPAPLPAPKNLVVSRVTEDSARLSWTAPDAAFDSFWIRYFEFLGSGEAIVLTVPGSERSYDLTGLCPGTEYVVNIMSVKGGSISPPLSAIFTTAPCPAPAPAPLAEAKVLANRELDKYGVSDYYKNLINNAKTVEGVKALLDEILAALP | – | 1.6 | 0.5 | – |
| ECB147v7-PEG24 (designed binder, PEG24-maleimide on the engineered cysteines) LPAPKNLVVSEVTEDSARLSWDDPWAFYESFLIQYQESEKVGEAIVLTVPGSERSYDLTGLKPGTEYTVSIYGVHNVYKDTNMRGLPLSAIFTTAPCPAPAPAPLPAPKNLVVSRVTEDSARLSWTAPDAAFDSFWIRYFEFLGSGEAIVLTVPGSERSYDLTGLKPGTEYVVNIMSVKGGSISPPLSAIFTTAPCPAPAPAPLAEAKVLANRELDKYGVSDYYKNLINNAKTVEGVKALLDEILAALP | – | 1.4 | 0.5 | – |
| ECB147v5-PEG24 (designed binder, PEG24-maleimide on the engineered cysteines) LPAPKNLVVSEVTEDSARLSWDDPWAFYESFLIQYQESEKVGEAIVLTVPGSERSYDLTGLCPGTEYTVSIYGVHNVYKDTNMRGLPLSAIFTTAPAPAPAPAPLPAPKNLVVSRVTEDSARLSWTAPDAAFDSFWIRYFEFLGSGEAIVLTVPGSERSYDLTGLCPGTEYVVNIMSVKGGSISPPLSAIFTTAPAPAPAPAPLAEAKVLANRELDKYGVSDYYKNLINNAKTVEGVKALLDEILAALP | – | 0.9 | 0.4 | – |
| ECB147v6-PEG24 (designed binder, PEG24-maleimide on the engineered cysteine) LPAPKNLVVSEVTEDSARLSWDDPWAFYESFLIQYQESEKVGEAIVLTVPGSERSYDLTGLCPGTEYTVSIYGVHNVYKDTNMRGLPLSAIFTTAPAPAPAPAPLPAPKNLVVSRVTEDSARLSWTAPDAAFDSFWIRYFEFLGSGEAIVLTVPGSERSYDLTGLKPGTEYVVNIMSVKGGSISPPLSAIFTTAPAPAPAPAPLAEAKVLANRELDKYGVSDYYKNLINNAKTVEGVKALLDEILAALP | – | 1.4 | 0.4 | – |
